B1: Moxe: reference immunotoxin compared with LMIT-2 in FIG. 2B; not further defined in the text (antibody, chains of the INN, looked up, V domains shown)
VH: EVQLVESGGGLVKPGGSLKLSCAASGFAFSIYDMSWVRQTPEKCLEWVAYISSGGGTTYYPDTVKGRFTISRDNAKNTLYLQMSSLKSEDTAMYYCARHSGYGTHWGVLFAYWGQGTLVTVSA
VL: DIQMTQTTSSLSASLGDRVTISCRASQDISNYLNWYQQKPDGTVKLLIYYTSILHSGVPSRFSGSGSGTDYSLTISNLEQEDFATYFCQQGNTLPWTFGCGTKLEI
modifications: pasudotox (PE38 toxin fusion)
notes: not further defined in the text
B2: PV: CD22-targeting IgG-based ADC, antibody conjugated with MMAE (conjugate, chains of the INN, looked up)
VH: EVQLVESGGGLVQPGGSLRLSCAASGYEFSRSWMNWVRQAPGKGLEWVGRIYPGDGDTNYSGKFKGRFTISADTSKNTAYLQMNSLRAEDTAVYYCARDGSSWDWYFDVWGQGTLVTVSS
VL: DIQMTQSPSSLSASVGDRVTITCRSSQSIVHSVGNTFLEWYQQKPGKAPKLLIYKVSNRFSGVPSRFSGSGSGTDFTLTISSLQPEDFATYYCFQGSQFPYTFGQGTKVEIK
modifications: vedotin (MMAE) payload

Assays:
[1] = cytotoxicity of immunotoxins and blocking of LMIT-2 by LMIT-3 (FIG. 2B); assay type: cell-based
[2] = tested on: many cell lines; conditions: published activity of PV; cited from earlier work
[3] = tested on: many cell lines; assay: molar activity in vitro against many cell lines (FIG. 3B); assay type: cell-based; conditions: on average, PV from published activity
Procedure: FIG. 3: Activity of Duotoxins in vitro.
LMIT-2-DM1 was tested against various cell lines (FIG. 3A). […] Cells like DOHH-2 that are resistant to immunotoxins were sensitive to the LMIT-2-DM1. We have not found a cell line which is resistant to both, the PE and the DM1 in vitro. […] On average 3.6 DM1 molecules per LMIT-3 molecule were coupled. […] The activity of PV varies substantially over a 3-log concentration range. […] The activity is tested by plating the above described cell lines at 20,000 cells per well in a 96-well plate. The immunotoxin or duotoxin is added at indicated concentrations in a three-fold serial dilution, the cells incubated in a humidified incubator for 72 hours. The cells are then collected by centrifugation, stained with 7-AAD and Annexin V and cell death determined by flow cytometry. The concentration at which 50% of the cells are killed (IC50) reflects the activity of a drug against a cell and is determined from the flow cytometry data by non-linear regression analysis.

Row | Molecule | activity of LMIT-2 compared with Moxe [1] | variation of activity over concentration range [2] [log] | activity relative to LMIT-2 (less active) [3] [logs]
1 | B1 | comparable activity |  | 
2 | B2 |  | 3 | 3

Reference: patent US20200384118A1, “IMMUNOTOXIN CONJUGATES FOR USE IN THERAPY” (FRIEDRICH-ALEXANDER-UNIVERSITAT ERLANGEN-NURNBERG, priority 2017, published 2020)
